The supplement of paper PMC11246515
± gives the standard deviation of the averaged measurements.

Experiment: total protein half-life in vivo (active degradation + dilution); higher = more stable protein
[1] = wild type E. coli NCM3722, growth: C-lim chemostat, doubling time 3 h
[2] = wild type E. coli NCM3722, growth: P-lim chemostat, doubling time 6 h
[3] = wild type E. coli NCM3722, growth: P-lim chemostat, doubling time 12 h
[4] = E. coli NCM3722 delta-clpP delta-lon delta-hslV, growth: N-lim chemostat, doubling time 6 h
[5] = E. coli NCM3722 delta-lon, growth: N-lim chemostat, doubling time 6 h
[6] = E. coli NCM3722 delta-smpB, growth: N-lim chemostat, doubling time 6 h
[7] = wild type E. coli NCM3722, growth: C-lim chemostat, doubling time 6 h
[8] = wild type E. coli NCM3722, growth: C-lim chemostat, doubling time 12 h
[9] = E. coli NCM3722 delta-clpP, growth: N-lim chemostat, doubling time 6 h
[10] = E. coli NCM3722 delta-hslV, growth: N-lim chemostat, doubling time 6 h
[11] = wild type E. coli NCM3722, growth: N-lim chemostat, doubling time 6 h
[12] = wild type E. coli NCM3722, growth: N-lim chemostat, doubling time 12 h

Sequence	total protein half-life in vivo [1]	total protein half-life in vivo [2]	total protein half-life in vivo [3]	total protein half-life in vivo [4]	total protein half-life in vivo [5]	total protein half-life in vivo [6]	total protein half-life in vivo [7]	total protein half-life in vivo [8]	total protein half-life in vivo [9]	total protein half-life in vivo [10]	total protein half-life in vivo [11]	total protein half-life in vivo [12]
MSSHPYVTQQNTPLADDTTLMSTTDLQSYITHANDTFVQVSGYTLQELQGQPHNMVRHPDMPKAAFADMWFTLKKGEPWSGIVKNRRKNGDHYWVRANAVPMVREGKISGYMSIRTRATDEEIAAVEPLYKALNAGRTSKRIHKGLVVRKGWLGKLPSLPLRWRARGVMTLMFILLAAMLWFVAAPVVTYILCALVVLLASACFEWQIVRPIENVAHQALKVATGERNSVEHLNRSDELGLTLRAVGQLGLMCRWLINDVSSQVSSVRNGSETLAKGTDELNEHTQQTVDNVQQTVATMNQMAASVKQNSATASAADKLSITASNAAVQGGEAMTTVIKTMDDIADSTQRIGTITSLINDIAFQTNILALNAAVEAARAGEQGKGFAVVAGEVRHLASRSANAANDIRKLIDASADKVQSGSQQVHAAGRTMEDIVAQVKNVTQLIAQISHSTLEQADGLSSLTRAVDELNLITQKNAELVEESAQVSAMVKHRASRLEDAVTVLH	2.72 ± 0.7 h	–	–	–	–	–	–	–	–	–	–	–
MTHQLRSRDIIALGFMTFALFVGAGNIIFPPMVGLQAGEHVWTAAFGFLITAVGLPVLTVVALAKVGGGVDSLSTPIGKVAGVLLATVCYLAVGPLFATPRTATVSFEVGIAPLTGDSALPLFIYSLVYFAIVILVSLYPGKLLDTVGNFLAPLKIIALVILSVAAIVWPAGSISTATEAYQNAAFSNGFVNGYLTMDTLGAMVFGIVIVNAARSRGVTEARLLTRYTVWAGLMAGVGLTLLYLALFRLGSDSASLVDQSANGAAILHAYVQHTFGGGGSFLLAALIFIACLVTAVGLTCACAEFFAQYVPLSYRTLVFILGGFSMVVSNLGLSQLIQISVPVLTAIYPPCIALVVLSFTRSWWHNSSRVIAPPMFISLLFGILDGIKASAFSDILPSWAQRLPLAEQGLAWLMPTVVMVVLAIIWDRAAGRQVTSSAH [P0AD99]	–	0.949 h	1.98 ± 0.53 h	–	–	–	–	–	–	–	–	–
MKRPNFLFVMTDTQATNMVGCYSGKPLNTQNIDSLAAEGIRFNSAYTCSPVCTPARAGLFTGIYANQSGPWTNNVAPGKNISTMGRYFKDAGYHTCYIGKWHLDGHDYFGTGECPPEWDADYWFDGANYLSELTEKEISLWRNGLNSVEDLQANHIDETFTWAHRISNRAVDFLQQPARADEPFLMVVSYDEPHHPFTCPVEYLEKYADFYYELGEKAQDDLANKPEHHRLWAQAMPSPVGDDGLYHHPLYFACNDFVDDQIGRVINALTPEQRENTWVIYTSDHGEMMGAHKLISKGAAMYDDITRIPLIIRSPQGERRQVDTPVSHIDLLPTMMALADIEKPEILPGENILAVKEPRGVMVEFNRYEIEHDSFGGFIPVRCWVTDDFKLVLNLFTSDELYDRRNDPNEMHNLIDDIRFADVRSKMHDALLDYMDKIRDPFRSYQWSLRPWRKDARPRWMGAFRPRPQDGYSPVVRDYDTGLPTQGVKVEEKKQKF	2.28 h	4.04 h	8.72 ± 5.3 h	5.62 h	3.1 h	2 h	4.35 ± 0.17 h	7.04 ± 0.66 h	–	–	–	–
MIAITGATGQLGHYVIESLMKTVPASQIVAIVRNPAKAQALAAQGITVRQADYGDEAALTSALQGVEKLLLISSSEVGQRAPQHRNVINAAKAAGVKFIAYTSLLHADTSPLGLADEHIETEKMLADSGIVYTLLRNGWYSENYLASAPAALEHGVFIGAAGDGKIASATRADYAAAAARVISEAGHEGKVYELAGDSAWTLTQLAAELTKQSGKQVTYQNLSEADFAAALKSVGLPDGLADMLADSDVGASKGGLFDDSKTLSKLIGHPTTTLAESVSHLFNVNN	3.2 ± 0.18 h	6.72 ± 0.65 h	13.1 ± 1.4 h	5.42 ± 0.13 h	5.3 ± 0.25 h	4.569 ± 0.035 h	5.84 ± 0.31 h	8.9 ± 2 h	4.93 ± 0.067 h	4.99 ± 0.61 h	5.15 ± 0.28 h	8.33 h
MNSKKLCCICVLFSLLAGCASESSIDEKKKKAQVTQSNINKNTPQQLTDKDLFGNETTLAVSEEDIQAALDGDEFRVPLNSPVILVQSGNRAPETIMQEEMRKYYTVSTFSGIPDRQKPLTCNKNKDKNENEDVASAENMNWMQALRFVAAKGHQKAIIVYQDMLQTGKYDSALKSTVWSDYKNDKLTDAISLRYLVRFTLVDVATGEWATWSPVNYEYKVLPPLPDKNEASTTDMTEQQIMQLKQKTYKAMVKDLVNRYQ	–	–	–	–	–	2.44 h	–	–	–	–	–	–
MTIALELQQLKKTYPGGVQALRGIDLQVEAGDFYALLGPNGAGKSTTIGIISSLVNKTSGRVSVFGYDLEKDVVNAKRQLGLVPQEFNFNPFETVQQIVVNQAGYYGVERKEAYIRSEKYLKQLDLWGKRNERARMLSGGMKRRLMIARALMHEPKLLILDEPTAGVDIELRRSMWGFLKDLNDKGTTIILTTHYLEEAEMLCRNIGIIQHGELVENTSMKALLAKLKSETFILDLAPKSPLPKLDGYQYRLVDTATLEVEVLREQGINSVFTQLSEQGIQVLSMRNKANRLEELFVSLVNEKQGDRA	3.09 ± 0.16 h	6.24 ± 0.29 h	12.7 ± 0.8 h	6.97 ± 0.91 h	6.83 ± 0.17 h	6.4 ± 0.21 h	6.21 ± 0.28 h	11.6 ± 1.9 h	6.29 ± 0.4 h	6.1 ± 1 h	6.14 ± 0.38 h	12.1 ± 0.42 h
MRIRYGWELALAALLVIEIVAFGAINPRMLDLNMLLFSTSDFICIGIVALPLTMVIVSGGIDISFGSTIGLCAIALGVLFQSGVPMPLAILLTLLLGALCGLINAGLIIYTKVNPLVITLGTLYLFAGSALLLSGMAGATGYEGIGGFPMAFTDFANLDVLGLPVPLIIFLICLLVFWLWLHKTHAGRNVFLIGQSPRVALYSAIPVNRTLCALYAMTGLASAVAAVLLVSYFGSARSDLGASFLMPAITAVVLGGANIYGGSGSIIGTAIAVLLVGYLQQGLQMAGVPNQVSSALSGALLIVVVVGRSVSLHRQQIKEWLARRANNPLP [P0AFS1]	–	–	–	–	–	–	6.11 h	13.4 h	–	–	–	–
MRLLHTMLRVGDLQRSIDFYTKVLGMKLLRTSENPEYKYSLAFVGYGPETEEAVIELTYNWGVDKYELGTAYGHIALSVDNAAEACEKIRQNGGNVTREAGPVKGGTTVIAFVEDPDGYKIELIEEKDAGRGLGN [P0AC81]	3.48 ± 0.63 h	5.41 ± 0.27 h	11.6 ± 0.91 h	5.13 ± 0.38 h	5 ± 0.3 h	4.3 ± 0.39 h	5.44 ± 0.1 h	8.9 ± 0.29 h	4.5 ± 0.53 h	4.72 ± 0.37 h	4.38 ± 0.4 h	8.01 ± 1 h
MFRQLKKNLVATLIAAMTIGQVAPAFADSADTLPDMGTSAGSTLSIGQEMQMGDYYVRQLRGSAPLINDPLLTQYINSLGMRLVSHANSVKTPFHFFLINNDEINAFAFFGGNVVLHSALFRYSDNESQLASVMAHEISHVTQRHLARAMEDQQRSAPLTWVGALGSILLAMASPQAGMAALTGTLAGTRQGMISFTQQNEQEADRIGIQVLQRSGFDPQAMPTFLEKLLDQARYSSRPPEILLTHPLPESRLADARNRANQMRPMVVQSSEDFYLAKARTLGMYNSGRNQLTSDLLDEWAKGNVRQQRAAQYGRALQAMEANKYDEARKTLQPLLAAEPGNAWYLDLATDIDLGQNKANEAINRLKNARDLRTNPVLQLNLANAYLQGGQPQEAANILNRYTFNNKDDSNGWDLLAQAEAALNNRDQELAARAEGYALAGRLDQAISLLSSASSQVKLGSLQQARYDARIDQLRQLQERFKPYTKM	2.7 ± 0.2 h	3.46 ± 0.47 h	7.12 ± 1.7 h	4.342 ± 0.022 h	4.52 ± 0.32 h	4.35 ± 0.05 h	5.08 ± 0.19 h	9.19 ± 1.1 h	5.12 ± 1.1 h	4.86 ± 0.098 h	4.73 ± 0.033 h	8.19 ± 1.1 h
MLKTISPLISPELLKVLAEMGHGDEIIFSDAHFPAHSMGPQVIRADGLLVSDLLQAIIPLFELDSYAPPLVMMAAVEGDTLDPEVERRYRNALSLQAPCPDIIRINRFAFYERAQKAFAIVITGERAKYGNILLKKGVTP [P0AEN8]	3.05 ± 0.092 h	5.89 ± 0.63 h	12.3 ± 0.71 h	6.09 ± 0.27 h	–	5.51 ± 0.094 h	6.7 ± 0.48 h	13.2 ± 0.83 h	6.25 ± 0.67 h	6.67 ± 1.6 h	5.36 ± 0.38 h	10.4 ± 1.1 h
